Laboratory results taken from the supplement of paper PMC10567573.

B1: CHMP4C (parent)
chain: TNIRLPNVPSSSLPAQPNRKPGMS
B2: SCNN1D (parent)
chain: RRPSPVLRHLELLDEFARENIDSL

Variants of: B1
Experiment: protein stability index of a GFP-peptide fusion (GPS, HEK-293T) (PSI 1-6); higher = more stable
Conditions: c terminus: a fixed tail appended
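Further: lentivirally expressed fusions sorted by FACS into six bins by GFP to DsRed ratio, PSI derived from sequencing read proportions per bin multiplied by bin number.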

Protein stability index: each site, then its substitutions
R19: G 4.49 | A 4.61 | T 4.57 | L 4.58 | V 4.71 | Y 3.94 | W 3.6 | F 4.13 | D 4.66 | S 4.71 | K 4.33 | P 4.77 | I 4.61 | E 4.86 | H 4.33 | N 4.69 | Q 4.62 | C 4.27 | M 4.37
K20: I 3.61 | N 4.41 | A 4.43 | Q 4.55 | R 4.4 | M 3.75 | C 4.3 | E 4.27 | T 3.92 | S 4.56 | G 4.39 | P 3.77 | L 4.41 | Y 4.02 | V 3.66 | D 4.44 | F 3.79 | H 4.4 | W 3.41
S24: P 4.81 | K 4.94 | Q 4.69 | G 4.14 | R 4.67 | N 4.57 | L 4.15 | W 3.8 | T 4.62 | Y 4.34 | H 4.5 | F 4.21 | A 4.48 | C 4.2 | V 4.86 | E 4.83 | D 3.96 | I 4.27 | M 3.99
N18: W 3.42 | Y 4.36 | K 4.62 | Q 4.87 | M 4.66 | T 4.89 | S 4.21 | L 4.25 | I 4.3 | R 4.69 | P 4.58 | V 4.6
G22: A 4.48 | I 4.39 | F 4.2 | E 4.68 | N 5.03 | H 4.32 | M 4.2 | Y 4.01 | S 4.08 | Q 4.88 | V 4.29 | C 4.4 | P 4.24 | R 4.92 | K 4.64 | W 3.75 | L 4.22 | D 4.78 | T 4.21
P21: K 4.65 | A 5 | E 4.5 | V 4.14 | Q 4.96 | S 4.41 | G 4.31 | L 4.29 | Y 4.05 | T 4.47 | I 4.31 | D 4.59 | N 4.11 | F 4.32 | R 4.94 | C 4.24 | M 4.32 | H 4.45 | W 3.4
M23: A 5.03 | V 4.82 | N 5.13 | Q 5.23 | H 4.92 | G 5.2 | T 5.17 | C 4.84 | P 4.28 | Y 4.7 | K 4.37 | D 5.58 | I 4.37 | W 3.96 | R 4.04 | E 5.61 | S 5.17 | F 4.42 | L 4.88

Variants of: B2
Experiment: as above
Conditions: c terminus: a fixed tail appended

Protein stability index: each site, then its substitutions
P3: D 2.74 | C 2.73 | A 2.35
R2: P 4.61 | L 1.94 | N 3.25 | Y 1.63 | V 2.93 | K 2.85 | D 3.41 | T 3.55 | H 2.68 | M 2.5 | F 2.22 | Q 3.21 | W 1.78 | C 3.38 | I 2.6 | E 3.22 | G 3.52 | A 3.98 | S 4.32
R1: F 1.99 | V 2.36 | E 3.36 | S 2.63 | G 2.46 | W 2.18 | Y 1.72 | D 2.86 | L 2.21 | H 2.43 | A 2.1 | K 2.92 | Q 2.69 | N 2.5 | T 2.38 | P 2.58 | M 2.19 | C 2 | I 2.1
